Laboratory results published in patent US20240013853A1 (University of Washington, published 2024).

How the values were obtained:
[1] = biological target: the molecule itself; assay: negative stain EM, 2D class averages and 3D maps; self-association of protomers (hexamer)
Protocol: (§1) Next, we selected three designs: one C15 homo-pentamer (HALC5-15_262), one C18 homo-hexamer (HALC6-18_265) and one C33 homo-trimer (HALC3-33_343) for high-resolution single particle cryoEM characterization.
(§2) SEC fractions corresponding to the designs were concentrated in TBS prior to negative stain EM screening. Samples were then immediately diluted 5 to 150 times in TBS buffer (25 mM Tris, 100 mM NaCl, pH 8.0) depending on the concentration of the samples. A final volume of 5 μL was applied on negatively glow discharged, carbon-coated 400-mesh copper grids (01844-F, TedPella Inc.), then washed with Milli-Q Water and stained using 0.75% uranyl formate as previously described (44). Air-dried grids were then imaged on either a FEI Talos™ L120C TEM (FEI Thermo Scientific) equipped with a 4K×4K Gatan OneView™ camera at a magnification of 57,000× and pixel size of 2.5 Å. Micrographs collection was automated using EPU™ software (FEI Thermo Scientific) and were imported into CisTEM™ software (45) or cryoSPARC™ software (46, 47). CTF estimation was done with CTFFIND4 and a circular blob picker was used to select particles which were then subjected to 2D classification. Ab initio reconstruction and homogeneous refinement in Cn symmetry were used to generate 3D electron density maps. All EM maps can be found in supplementary data.

[2] = biological target: the molecule itself; assay: X-ray crystal structure; self-association of protomers
Protocol: (§3) 19 designs were chosen to undergo crystallization screens. Each design was expressed as described above in 0.5 L cultures. […] Following SEC, 2 mM of NiCl₂ was added and the solution was incubated overnight at 37° C. Following cleavage, the solutions containing the cleaved protein products were incubated with 1 mL Ni-NTA resin to bind any uncleaved product, and the flow through was collected. Following SEC into Crystallization buffer (20 mM Tris, 50 mM NaCl, pH 8.0), each sample was concentrated to approximately 15 mg mL⁻¹. The following sitting drop broad screens were set up at room temperature with three protein:crystallization condition ratios (1:1, 1:2, 2:1) using the mosquito pipetting instrument (sptlabtech): Midas™ (Molecular Dimensions), Proplex™ (Molecular Dimensions), JCSG+™ (Molecular Dimensions), Morpheus™ (Molecular Dimensions), Pact Premier™ (Molecular Dimensions), LMB™ (Molecular Dimensions), Index™ (Hampton Research) and PGA™ (Molecular Dimensions). Each was monitored weekly for crystal growth using the JANSi UVEX imaging system.
Where required, crystals were cryoprotected with 20% glycerol or 25% ethylene glycol prior to flash freezing in liquid nitrogen. Data collection was done using the Advanced Photon Source synchrotron. Images were integrated using XDS 20220110 (37). Aimless (38) was used for scaling and merging. Phaser™ 2.8 (39) was used for molecular replacement using the design models as search models (either monomer or oligomeric complex). Models were built using Coot 0.9.8 (40) and refined with Phenix ™ refine from Phenix™ 1.20 (41) and RefMac™ (42) from CCP4 7.1 (38) suite. All structures were validated using MolProbity™ 4.5.1(43).

[3] = biological target: the molecule itself; assay: negative stain EM, 2D class averages and 3D maps; self-association of protomers (pentamer)
Protocol: as §1, §2

[4] = biological target: the molecule itself; assay: single particle cryoEM; self-association of protomers
Protocol: The designs were relaxed into experimental cryoEM electron densities using Rosetta FastRelax and SetupForDensityScoring.
For some samples, multiple blots were applied in order to obtain the best particle density. All grids were blotted using a blot force of 0 and 5.5 second blot time at 100% humidity and 4° C. and plunge-frozen in liquid ethane using a Vitrobot™ Mark IV (FEI Thermo Scientific). All cryoEM grids were screened on a Glacios™ transmission electron microscope (FEI Thermo Scientific) operated at 200 kV and equipped with a Gatan K2 or K3 Summit direct detector. […] Movies were acquired in counting mode fractionated in 50 frames of 200 ms at 8.5 e-/pixel/sec for a total dose of ˜65e-/Å².

[5] = biological target: the molecule itself; assay: X-ray crystallography; self-association of protomers (homo-dimer)
Protocol: as §3
Where required, crystals were cryoprotected with 20% glycerol or 25% ethylene glycol prior to flash freezing in liquid nitrogen. Data collection was done using the Advanced Photon Source synchrotron. Images were integrated using XDS 20220110 (37). Aimless (38) was used for scaling and merging. […]

[6] = biological target: the molecule itself; assay: negative stain EM, 2D class averages and 3D maps; self-association of protomers (heptamer)
Protocol: as §1, §2

B1: HALC24-6_316 (other)
chain: SKEKLGIQQDLFEGIIATLLSHKDPRVLYLMVTILKLTGSSPSKEKLGIQQDLFEGIIATLLSHKDPRVLYLMVTILKLTGSSPSKEKLGIQQDLFEGIIATLLSHKDPRVLYLMVTILKLTGSSPSKEKLGIQQDLFEGIIATLLSHKDPRVLYLMVTILKLTGSSP
notes: De novo designed protomer; pair is protomer with identical protomer (C24 internal symmetry, homo-hexamer); not shown: C-terminal His tag
- binding result [1]: binds

B2: HALC6_220 (other)
chain: PPIPPPSFKLEISPAFLELVQLVIDLHPNDEEVRKELIENLISRIGKSDNVPPETISLDISEAALELFEWIFEKFPDDEDVHRRLIESFINKRKFSSSSPLDTPSLDISERFIELVKYILEKYPEDEEIKQKLIDSLLNLLGSY
notes: De novo designed protomer; pair is protomer with identical protomer (C6 homo-hexamer); not shown: C-terminal His tag
- binding result [1]: binds

B3: HALC3_109 (other)
chain: REEIEEAVKEAELKVLAIVLVALRSVSHYEPLSRLYESFLDALKKALSEEELKEVEKEAERIEKK
notes: De novo designed protomer; pair is protomer with identical protomer (C3 homo-trimer)
- binding result [2]: binds

B4: HALC3_104 (other)
chain: KRIDEIESKLKHLEEFTTHLIKLMETMLELLKLVSDGKSDSEEYKELLEKAEEYLKQATEAAKKI
notes: as for B3
- binding result [2]: binds

B5: HALC25-5_341 (other)
chain: EGAAIAENLATAYQGIGETLPSLQDLRVLHLSVIFSAEGSSPEGAAIAENLATAYQGIGETLPSLQDLRVLHLSVIFSAEGSSPEGAAIAENLATAYQGIGETLPSLQDLRVLHLSVIFSAEGSSPEGAAIAENLATAYQGIGETLPSLQDLRVLHLSVIFSAEGSSPEGAAIAENLATAYQGIGETLPSLQDLRVLHLSVIFSAEGSSP
notes: De novo designed protomer; pair is protomer with identical protomer (C25 internal symmetry, homo-pentamer); not shown: C-terminal His tag
- binding result [3]: binds

B6: HALC4_135 (other)
chain: MEKFKEQLLEEVKKIVLETMTKVMEHLEKWFVTLAEIIITKSEEKLEELKETMEKSIEELRKEAE
notes: De novo designed protomer; pair is protomer with identical protomer (C4 homo-tetramer)
- binding result [2]: binds

B7: HALC15-5_262 (other)
chain: DVPLTDPKNLNEFLYALGEGLKGMKNLKKLTLTFPSNPLTIPGDISEGFRELGEGLKGMKNLEELTVTFNDVPLTDPKNLNEFLYALGEGLKGMKNLKKLTLTFPSNPLTIPGDISEGFRELGEGLKGMKNLEELTVTFNDVPLTDPKNLNEFLYALGEGLKGMKNLKKLTLTFPSNPLTIPGDISEGFRELGEGLKGMKNLEELTVTFN
notes: De novo designed protomer; pair is protomer with identical protomer (C15 internal symmetry, homo-pentamer); also called HALC5-15_262; HALC5-15 262; not shown: C-terminal His tag
- binding result [4]: binds

B8: HALC2_068 (other)
chain: MIKVPEDLERIGRELRARGLDTKRLLEEGPKLYPELSIPDLMAIALYDHLNLDPEFLYRLLQQSR
notes: De novo designed protomer; pair is protomer with identical protomer (C2 homo-dimer)
- binding result [2]: binds

B9: HALC33-3_343 (other)
chain: PSNWPEVAKYFDLGKALKPIGEGLQNLKNLKHLDLSFSFSLELYPGLPSNWPEVAKYFDLGKALKPIGEGLQNLKNLKHLDLSFSFSLELYPGLPSNWPEVAKYFDLGKALKPIGEGLQNLKNLKHLDLSFSFSLELYPGLPSNWPEVAKYFDLGKALKPIGEGLQNLKNLKHLDLSFSFSLELYPGLPSNWPEVAKYFDLGKALKPIGEGLQNLKNLKHLDLSFSFSLELYPGLPSNWPEVAKYFDLGKALKPIGEGLQNLKNLKHLDLSFSFSLELYPGLPSNWPEVAKYFDLGKALKPIGEGLQNLKNLKHLDLSFSFSLELYPGLPSNWPEVAKYFDLGKALKPIGEGLQNLKNLKHLDLSFSFSLELYPGLPSNWPEVAKYFDLGKALKPIGEGLQNLKNLKHLDLSFSFSLELYPGLPSNWPEVAKYFDLGKALKPIGEGLQNLKNLKHLDLSFSFSLELYPGLPSNWPEVAKYFDLGKALKPIGEGLQNLKNLKHLDLSFSFSLELYPGL
notes: De novo designed protomer; pair is protomer with identical protomer (C33 internal symmetry, homo-trimer); not shown: C-terminal His tag
- binding result [4]: binds

B10: HALC20-5_308 (other)
chain: SLGWKVLLHLDLTWYPGADYTIDHDDMTRAARALAHGFERAAHSFAEAIGSTGSLGWKVLLHLDLTWYPGADYTIDHDDMTRAARALAHGFERAAHSFAEAIGSTGSLGWKVLLHLDLTWYPGADYTIDHDDMTRAARALAHGFERAAHSFAEAIGSTGSLGWKVLLHLDLTWYPGADYTIDHDDMTRAARALAHGFERAAHSFAEAIGSTG
notes: De novo designed protomer; pair is protomer with identical protomer (C20 internal symmetry, homo-pentamer); not shown: C-terminal His tag
- binding result [3]: binds

B11: HALC2_062 (other)
chain: MARVEYSYEKLNDTHYKLKLKVTYEYRKSPEARRLAEDLVQAFVDALSSLPFITVEYEVEEVEVE
notes: De novo designed protomer; the entry is one protomer and the pair is protomer with identical protomer (C2 homo-dimer)
- binding result [5]: binds

B12: HALC42-7_351 (other)
chain: PSLTLNDFGDLGKGLGEGLQGMENLEKLQLTITLKLTVSTPSLTLNDFGDLGKGLGEGLQGMENLEKLQLTITLKLTVSTPSLTLNDFGDLGKGLGEGLQGMENLEKLQLTITLKLTVSTPSLTLNDFGDLGKGLGEGLQGMENLEKLQLTITLKLTVSTPSLTLNDFGDLGKGLGEGLQGMENLEKLQLTITLKLTVSTPSLTLNDFGDLGKGLGEGLQGMENLEKLQLTITLKLTVST
notes: De novo designed protomer; pair is protomer with identical protomer (C42 internal symmetry, homo-heptamer); not shown: C-terminal His tag
- binding result [6]: binds
